Measured values from IntAct's records for PubMed 14519764.

B1: Metabotropic glutamate receptor 1 (Rattus norvegicus (Rat)), P23385 (parent)
chain: MVRLLLIFFPMIFLEMSILPRMPDRKVLLAGASSQRSVARMDGDVIIGALFSVHHQPPAEKVPERKCGEIREQYGIQRVEAMFHTLDKINADPVLLPNITLGSEIRDSCWHSSVALEQSIEFIRDSLISIRDEKDGLNRCLPDGQTLPPGRTKKPIAGVIGPGSSSVAIQVQNLLQLFDIPQIAYSATSIDLSDKTLYKYFLRVVPSDTLQARAMLDIVKRYNWTYVSAVHTEGNYGESGMDAFKELAAQEGLCIAHSDKIYSNAGEKSFDRLLRKLRERLPKARVVVCFCEGMTVRGLLSAMRRLGVVGEFSLIGSDGWADRDEVIEGYEVEANGGITIKLQSPEVRSFDDYFLKLRLDTNTRNPWFPEFWQHRFQCRLPGHLLENPNFKKVCTGNESLEENYVQDSKMGFVINAIYAMAHGLQNMHHALCPGHVGLCDAMKPIDGRKLLDFLIKSSFVGVSGEEVWFDEKGDAPGRYDIMNLQYTEANRYDYVHVGTWHEGVLNIDDYKIQMNKSGMVRSVCSEPCLKGQIKVIRKGEVSCCWICTACKENEFVQDEFTCRACDLGWWPNAELTGCEPIPVRYLEWSDIESIIAIAFSCLGILVTLFVTLIFVLYRDTPVVKSSSRELCYIILAGIFLGYVCPFTLIAKPTTTSCYLQRLLVGLSSAMCYSALVTKTNRIARILAGSKKKICTRKPRFMSAWAQVIIASILISVQLTLVVTLIIMEPPMPILSYPSIKEVYLICNTSNLGVVAPVGYNGLLIMSCTYYAFKTRNVPANFNEAKYIAFTMYTTCIIWLAFVPIYFGSNYKIITTCFAVSLSVTVALGCMFTPKMYIIIAKPERNVRSAFTTSDVVRMHVGDGKLPCRSNTFLNIFRRKKPGAGNANSNGKSVSWSEPGGRQAPKGQHVWQRLSVHVKTNETACNQTAVIKPLTKSYQGSGKSLTFSDASTKTLYNVEEEDNTPSAHFSPPSSPSMVVHRRGPPVATTPPLPPHLTAEETPLFLADSVIPKGLPPPLPQQQPQQPPPQQPPQQPKSLMDQLQGVVTNFGSGIPDFHAVLAGPGTPGNSLRSLYPPPPPPQHLQMLPLHLSTFQEESISPPGEDIDDDSERFKLLQEFVYEREGNTEEDELEEEEDLPTASKLTPEDSPALTPPSPFRDSVASGSSVPSSPVSESVLCTPPNVTYASVILRDYKQSSSTL

Variants of: B1
Details: with pp1g_rat Ppp1cc

| effect of a mutation on the interaction | Variant |
| --- | --- |
| decreasing interaction | S892A |
